Test results from PMC7864055, “Biochemical and biophysical analyses of hypoxia sensing prolyl hydroxylases from Dictyostelium discoideum and Toxoplasma gondii” (The Journal of Biological Chemistry, 2021).

Substrate: O=C(O)CCC(=O)C(=O)O
Experiment: RapidFire SPE-MS of Skp1 hydroxylation, Michaelis-Menten fit
Type: biochemical, Dictyostelium discoideum
Conditions: cosubstrate, full-length DdSkp1 100 μM, Fe(II) 50 μM, L-ascorbate 1 mM, HEPES pH 7.6, 37 °C, atmospheric O2
Description: RapidFire SPE-MS of Skp1 hydroxylation, Michaelis-Menten fit on DdPhyA

B1: DdPhyA (Dictyostelium discoideum) (protein)
chain: MDISNLPPHIRQQILGLISKPQQNNDESSSSNNKNNLINNEKVSNVLIDLTSNLKIENFKIFNKESLNQLEKKGYLIIDNFLNDLNKINLIYDESYNQFKENKLIEAGMNKGTDKWKDKSIRGDYIQWIHRDSNSRIQDKDLSSTIRNINYLLDKLDLIKNEFDNVIPNFNSIKTQTQLAVYLNGGRYIKHRDSFYSSESLTISRRITMIYYVNKDWKKGDGGELRLYTNNPNNTNQKELKQTEEFIDIEPIADRLLIFLSPFLEHEVLQCNFEPRIAITTWIY
notes: full-length aa 1-284, E. coli BL21 Gold (DE3), N-terminal His6-ZBasic tag cleaved by TEV, EDTA-treated to remove metal
Protein B1 has a Km of 36 ± 6 µM.
